± gives the uncertainty stated by the source.
Test: amyloid nucleation score (Sup35N fusion, yeast selection) (log enrichment); library NNK2; higher = more nucleation; inactive = no reads after selection
Summary of the method: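 Nucleation score is defined as the DiMSum log enrichment of output over input reads, with centring on the mode score of non-aggregating sequences. A minimum of 100 input reads was required for each sequence. Reads came from Illumina sequencing of plasmid inserts from psi-negative yeast expressing Sup35N fused to peptides of 20 random codons, induced with 100 μM copper sulfate for 24 hours and grown 7 days at 30°C on medium lacking adenine and uracil.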

LYLVVYIVASGSYACVRRST and FQDVDVLGSWPG are within error of each other in amyloid nucleation score: 0.546 ± 0.4 for the first, 0.387 ± 0.53 for the second.

Going from SRSLWYVLNYYV to FMTKTPLYVKSYSFWFDLVM, the amyloid nucleation score rises from 0.062 ± 0.29 to 1.57 ± 0.36.

PKIKHMMAWVMFVAFKVCSC and RVYSLNSRWYSLPG are within error of each other in amyloid nucleation score: -0.063 ± 0.29 for the first, 0.016 ± 0.76 for the second.

Going from YQYDNPVLDKT to AEDMSQARA, the amyloid nucleation score rises from -0.178 ± 0.55 to 1.15 ± 0.15.

First: FYCIFNFDIFV
Second: MNMRAGTEL
The amyloid nucleation score of the first is higher: 6.286 ± 0.052 for the first, 0.479 ± 0.54 for the second.

SNNNAIVNRSRIIRHFMNYC and ILWKMTFKAPIAKEFPAKWL are within error of each other in amyloid nucleation score: -0.604 ± 0.56 for the first, 0.065 ± 0.56 for the second.

Going from WHSVHYNLFCCF to GKSYPPHLHHDNNKAYRVLP, the amyloid nucleation score falls from 8.689 ± 0.041 to -0.178 ± 1.1.

First: FEGTHCVSSIANVMCVRWCL
Second: RLPASWLVAPGCRWPCLPRN
The amyloid nucleation score of the first is higher: 6.43 ± 0.069 for the first, 1.78 ± 0.22 for the second.

Compared with SRHGMSLASR, SCNDANILSMSVVWVLRTGE is higher in amyloid nucleation score: -0.024 ± 0.46 for the first, 3.12 ± 0.13 for the second.

Going from GCTRE to LGWQPNMWLISFISVSY, the amyloid nucleation score falls from 1.36 ± 0.53 to -0.81 ± 0.64.

Compared with LMGLFREFFRYILFGCINQF, SGYVRCLSAYDFLVNGLPML is higher in amyloid nucleation score: -0.419 ± 0.27 for the first, 0.519 ± 0.31 for the second.

Compared with MMHELHPRIELCG, KIRNSGG is lower in amyloid nucleation score: 6.12 ± 0.062 for the first, 0.747 ± 0.56 for the second.

Compared with SVAVPWGFTSYSCVRLGGFN, MLTTMCDELQLLVGPLGDRV is lower in amyloid nucleation score: 3.06 ± 0.14 for the first, 0.253 ± 0.3 for the second.

First: KCLWWFWLQDRKKRVMCLTG
Second: TDLASKAS
The amyloid nucleation score of the first is higher: 0.771 ± 0.43 for the first, -0.194 ± 0.48 for the second.

VNCCDFVVC and DDFRQVKREDWHWSLSAVLF are within error of each other in amyloid nucleation score: -0.063 ± 0.49 for the first, 0.36 ± 0.62 for the second.

First: RLSSILYYVNHFS
Second: NFCLVNLEWMRWSNLTDGLQ
The amyloid nucleation score of the first is lower: -0.045 ± 0.41 for the first, 5.34 ± 0.055 for the second.

Compared with MLLLGTTSQDHHMTLGKYAG, NRFVYLVI is lower in amyloid nucleation score: 0.808 ± 0.74 for the first, -0.321 ± 0.36 for the second.

Compared with KYSAYWG, TCTQPFLVGCVERSLYES is lower in amyloid nucleation score: 0.518 ± 0.4 for the first, -0.317 ± 0.28 for the second.

PHLFRPGTADVLYHYMTMRK and TRWARYALNVIEHWQLSWVK are within error of each other in amyloid nucleation score: 0.628 ± 0.37 for the first, 0.145 ± 0.63 for the second.

Compared with RQQMDS, VMCEEGLALRRCTGWLMFTG is lower in amyloid nucleation score: 3.62 ± 0.073 for the first, 1.11 ± 0.28 for the second.

WRRPFM and LSKCHCNILCVLMTCMWHLY are within error of each other in amyloid nucleation score: 0.163 ± 0.3 for the first, 0.333 ± 0.46 for the second.

Going from IHFWIMIDHG to RGMSAKSTERYVLGIGRAVS, the amyloid nucleation score rises from -0.771 ± 0.35 to 4.18 ± 0.11.

CHRLDWINYLCGSHKAIMIV and LVFRLDFDYVRLCPNLANTL are within error of each other in amyloid nucleation score: -0.472 ± 0.5 for the first, 0.192 ± 1 for the second.

VVIFCVVFWV and DKSSMYSSTMRPL are within error of each other in amyloid nucleation score: 0.129 ± 0.76 for the first, 0.06 ± 0.65 for the second.

DYLKRDVSTFSLS and RTPSCSL are within error of each other in amyloid nucleation score: -0.021 ± 0.29 for the first, -0.916 ± 1 for the second.

VWQVGQQRY and YNPCLSRSHSKCLRTWLECR are within error of each other in amyloid nucleation score: 0.899 ± 0.17 for the first, 1.26 ± 0.44 for the second.

TMPTY and YMALCLTAL are within error of each other in amyloid nucleation score: 0.709 ± 0.66 for the first, 0.367 ± 0.47 for the second.

First: ALHFPVIQHFW
Second: SYLCDPLRETTYSPKYLRST
The amyloid nucleation score of the first is higher: 5.22 ± 0.073 for the first, 0.667 ± 0.38 for the second.

GMGQQEVPNWGMATGCGYEE and TTDCG are within error of each other in amyloid nucleation score: 0.081 ± 1.1 for the first, -0.712 ± 0.33 for the second.

CFCKKCWVDSLLRRRVNNFH and YWNEP are within error of each other in amyloid nucleation score: -0.737 ± 1.1 for the first, 0.15 ± 0.37 for the second.

TLNSRWVNNSPVEM and RNFCGTRARSISYWAESERW are within error of each other in amyloid nucleation score: -0.12 ± 1 for the first, -0.089 ± 1.1 for the second.

With LGVTLFFQGDSTTRWDLYPV the amyloid nucleation score was “inactive”.
In the case of FYVLWQLVVYAMVMYWDTYS, the amyloid nucleation score is reported as “inactive”.
For VCVFEARVFSKLFVY, the amyloid nucleation score was “inactive”.
With MHSFLFLVIAM the amyloid nucleation score was “inactive”.
With FTSVRMCCILTLGISGSVRA the amyloid nucleation score was “inactive”.
With AQVEFLYNSLVHYFSIDNTG the amyloid nucleation score was “inactive”.
With NTWDMLYGIWFSSLLQALLN the amyloid nucleation score was “inactive”.
With DMGNDLRDRVRGFSALMLWR the amyloid nucleation score was “inactive”.
For LSHILMI, the amyloid nucleation score was “inactive”.
With TIFFRCHWIRGLLVHLMF the amyloid nucleation score was “inactive”.
For NYYGSVTRHFLSFLF, the amyloid nucleation score was “inactive”.

— the supplement of paper PMC12042874
